Data on one molecule can be found in patent US20160297854A1 (Novartis, published 2016).

The test has as its target T1, human VEGF (human, UniProt P15692 207-395, biotinylated).
T1 construct: also called hVEGF; hVEGF-biotin
T1 sequence: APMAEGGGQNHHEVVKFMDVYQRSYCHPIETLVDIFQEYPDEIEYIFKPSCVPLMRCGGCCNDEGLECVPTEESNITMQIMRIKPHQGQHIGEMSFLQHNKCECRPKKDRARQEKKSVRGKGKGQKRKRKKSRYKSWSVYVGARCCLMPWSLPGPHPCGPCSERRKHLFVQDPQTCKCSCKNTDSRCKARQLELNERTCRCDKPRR
The experiment in a line: SPR (Biacore), ligand hVEGF-biotin, 25 C. In general terms: SPR reads the build-up and loss of mass on a sensor chip optically.

For orientation: Kd means the free concentration of one partner at which half of the binding sites on the other are occupied at equilibrium, for simple one-to-one binding. As usually defined, the koff is the first-order rate constant of dissociation. A low value points to slow dissociation. The term kon denotes the rate constant with which the complex forms.

B1: NVS1j (Fab)
heavy: EVQLVESGGGLVQPGGSLRLSCTASGFSLTDYYYMTWVRQAPGKGLEWVGFIDPDDDPYYATWAKGRFTISRDNSKNTLYLQMNSLRAEDTAVYYCAGGDHNSGWGLDIWGQGTLVTVSSASTKGPSVFPLAPSSKSTSGGTAALGCLVKDYFPEPVTVSWNSGALTSGVHTFPAVLQSSGLYSLSSVVTVPSSSLGTQTYICNVNHKPSNTKVDKRVEPKSCGS
light: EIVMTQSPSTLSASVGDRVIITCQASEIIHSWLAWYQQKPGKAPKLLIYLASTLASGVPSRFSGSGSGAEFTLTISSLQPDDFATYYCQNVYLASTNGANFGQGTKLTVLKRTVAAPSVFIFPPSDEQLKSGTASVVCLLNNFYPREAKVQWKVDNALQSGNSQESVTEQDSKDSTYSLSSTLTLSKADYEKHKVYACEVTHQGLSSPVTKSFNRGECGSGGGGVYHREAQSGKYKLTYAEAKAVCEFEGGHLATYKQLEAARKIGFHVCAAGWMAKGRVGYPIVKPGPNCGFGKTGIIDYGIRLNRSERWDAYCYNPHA
notes: Tag on the C-terminus of the light chain of NVS4; The heavy chain number is printed as '[9]215'
B1 displayed a Kd of 5.64 pM, a koff of 0.000172 s⁻¹ and a kon of 3.05e+07 M⁻¹ s⁻¹.
